Experimental data: FireProtDB (doi:10.1021/bi00179a018)

Details: Bacillus amyloliquefaciens, Thermal, DSC, Potassium acetate 50 mM, reversible: yes, whole UniProt chain shown; for unfolding free energy: 25 °C

B1: Ribonuclease wild type, P00648 (protein)
chain: MMKMEGIALKKRLSWISVCLLVLVSAAGMLFSTAAKTETSSHKAHTEAQVINTFDGVADYLQTYHKLPDNYITKSEAQALGWVASKGNLADVAPGKSIGGDIFSNREGKLPGKSGRTWREADINYTSGFRNSDRILYSSDWLIYKTTDHYQTFTKIR
Tm (pH 2): 24 °C | unfolding enthalpy (calorimetric) (pH 2): 82.5 kcal/mol | Tm (pH 2.5): 31.6 °C | unfolding enthalpy (calorimetric) (pH 2.5): 94.3 kcal/mol | unfolding free energy (pH 3): 4.4 kcal/mol | unfolding free energy (pH 3.5): 6.79 kcal/mol | Tm (pH 3.5): 46.7 °C | unfolding enthalpy (calorimetric) (pH 3.5): 119 kcal/mol | unfolding free energy (pH 4): 8.13 kcal/mol | Tm (pH 4): 50.5 °C | unfolding enthalpy (calorimetric) (pH 4): 125 kcal/mol | unfolding free energy (pH 4.5): 9.02 kcal/mol | Tm (pH 4.5): 53 °C | unfolding enthalpy (calorimetric) (pH 4.5): 129 kcal/mol | unfolding free energy (pH 5): 9.35 kcal/mol | Tm (pH 5): 53.9 °C | unfolding enthalpy (calorimetric) (pH 5): 131 kcal/mol
